Tests used:
[1] = target: recombinant collagen IV α112 protomer (r-Prot); assay: SEC
[2] = target: PFHR9 NC1 domains; assay: SEC

For “recombinant collagen IV α112 protomer (r-Prot) (complex)”, the stoichiometry N [1] was 2.
Substance PFHR9 NC1 domains has a stoichiometry N [2] of 6.
